This note sets out measurements from patent US20220275059A1 (HARBOUR ANTIBODIES, published 2022).

The target of one assay is SARS-CoV spike protein (SARS-CoV, UniProt P59594 15-1182). Description: ELISA on SARS Secto.
For assay [1], the target named is T1, MERS-CoV S S1 subunit (MERS-S1) (MERS-CoV EMC isolate, UniProt K9N5Q8 19-748). Description: affinity measurement of HCAbs (method not told).
Assay [2] concerns the target T1, MERS-CoV S S1 subunit (MERS-S1). Description: ForteBio Octet / BLI (FIG. 2F and 3A). (In general: Biolayer interferometry detects binding as a change in optical thickness at a sensor tip.)
Another assay deals with T2, MERS-S1^A domain (MERS-CoV EMC isolate, UniProt K9N5Q8 19-357).
T2 sequence: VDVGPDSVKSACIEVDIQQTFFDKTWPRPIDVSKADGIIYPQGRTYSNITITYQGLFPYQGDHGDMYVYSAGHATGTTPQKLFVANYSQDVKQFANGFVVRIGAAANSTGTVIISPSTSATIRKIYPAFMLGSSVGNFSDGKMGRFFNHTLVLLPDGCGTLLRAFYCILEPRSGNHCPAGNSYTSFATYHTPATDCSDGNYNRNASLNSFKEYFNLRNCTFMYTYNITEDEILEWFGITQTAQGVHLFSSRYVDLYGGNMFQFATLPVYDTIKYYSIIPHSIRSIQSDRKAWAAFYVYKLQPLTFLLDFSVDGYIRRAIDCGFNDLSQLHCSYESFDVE
Description: ELISA on coated MERS-S1^A, OD450 [D]. (In an ELISA, binding on a coated surface is turned into a signal by an enzyme label.)

In assay [3] the target is T3, MERS-S on pseudotyped VSV particles (MERS-S carrying a 16-a.a. cytoplasmic tail truncation) (MERS-CoV, UniProt K9N5Q8 18-1337). Description: cell-based or functional assay.
For assay [4], the target named is T3, MERS-S on pseudotyped VSV particles …. Description: cell-based or functional assay. This is another data set of the same source.
Assay [5] deals with T1, MERS-CoV S S1 subunit (MERS-S1). Description: ForteBio Octet kinetic measurement (FIG. 3A).
The target is the same in assay [6]. Description: ELISA on coated MERS-S1, OD450 [D].
For assay [7], the target named is MERS-S1^B domain (receptor binding domain) (MERS-CoV EMC isolate, UniProt K9N5Q8 358-588). Description: ELISA on coated MERS-S1^B, OD450 [D].
Another assay addresses peptide 11. Description: ELISA on coated overlapping MERS-S2 peptides, A450 [D00032 Fig. 14(B].
The target of a further assay is peptide 10. The description is as above.
Assay [8] deals with MERS-S2 ectodomain (MERS-S2^ecto) (MERS-CoV EMC isolate, UniProt K9N5Q8 752-1262).

“And” between values parts separate entries of the source, which are not always exact repeats. Equal entries are not always repeated.

B1: 1.13a9 (antibody, V domains shown)
VH: EVQLVESGGGLVQPGGSLRLSCAASGFTFSNYWMTWVRQAPGKGLEWVANIKEDGSEKYYVDSVKGRFTLSRDNAKNSLYLQMNSLRAEDTAVYYCAKEGALLWFGVLRPRAFDIWGQGTMVTVSS
VL: DIVMTQSPLSLPVTPGEPASISCRSSQSLLHSNGYNYLDWYLQNPGQSPHLLIYLASNRASGVPDRFSGSGSGTDFTLKISRVEAADVGVYYCMQALQTPYTFGQGTKLEIKR
For the molecule B1, the binding result with SARS-CoV spike protein is recorded as “no binding (tested: 25.00 (no unit printed))”.

B2: 1H5 heavy chain-only antibody (antibody, V domains shown)
VH: EVQLVESGGGLVQPGGSLRLSCAASGFTFSSYWMLWVRQAPGEGLVWVSRIDSDGSNTTYADSVKGRFTVSRDNAKNTLYLQMNSLRAEDTAVYYCARSGYGYAFDIWGQGTMVTVSS
The Kd is a measure of binding affinity in units of concentration. Read a high Kd as weaker binding. Turning to B2, in [1], the Kd was 10.9 nM. This lies in the double-digit nanomolar range.

B3: 1.8e5 (antibody, V domains shown)
VH: QVQLQESGPGLVKPSGTLSLTCAVSGGSISSNRWWTWVRRSPGKGLEWIGEIYHSGSTNYNPSLKSRVTISVDRSKNQFSLKLSSVTAADTAVYYCASLTLIWFGEKAFDIWGQGTMVTVSS
VL: EIVMTQSPATLSVSPGERATLSCGASPSVSTNLAWYQQRPGQAPRLLIYGISTRAAGIPARFSGTGSGTEFTLTISSLQSEDFALYYCQQYNNWPYTFGQGTKLEIKR
With B3, the Kd in assay [2] is roughly 0.32 nM. Besides, in the assay with MERS-S1^A domain, the binding result was “no binding (tested: about 5x10^5 ng/ml)”. Also, the “IC50, neutralisation of MERS-S VSV pseudovirus on Vero cells” value (from here on “IC50, neutralisation”) in [3] is 1.5 µg/mL. For the same molecule, in [4], the “IC50, MERS-S pseudovirus infection (human IgG1)” value is 10 nM; the “IC50, neutralization of MERS-S pseudovirus infectivity (H2L2)” value (from here on “IC50, neutralization … (H2L2)”) is roughly 0.0903 µg/mL; the “IC50, neutralization of MERS-S pseudovirus infectivity (human IgG1)” value (“IC50, neutralization … (human IgG1)” for short) was roughly 2.59 µg/mL.

B4: 1.10f3 (antibody, V domains shown)
VH: QVQLVESGGGVVQPGRSLRLSCKASGFTFRGYGMHWVRQAPGKGLEWVTVIWHDASNKYYVDSVKGRFSISRDNSKNTLYLQMNSLRAEDTAVYYCARDAGLSFDIWGQGTMVTVSS
VL: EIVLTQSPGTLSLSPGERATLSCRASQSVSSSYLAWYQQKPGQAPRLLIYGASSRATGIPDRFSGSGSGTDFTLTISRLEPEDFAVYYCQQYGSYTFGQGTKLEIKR
The term EC50 (read off the curve) denotes the concentration needed to bring the measured effect to its halfway point. A lower EC50 (read off the curve) goes with higher potency in that assay. Molecule B4 came in with an equilibrium dissociation constant (Kd) in assay [5] of roughly 4.8 nM. In addition, the “EC50 (read off the curve)” value with MERS-S1^A domain is roughly 0.07 µg/mL; in [6] it was roughly 0.1 µg/mL. Besides, the “IC50, neutralisation” value in assay [3] was > 10 µg/ml and > 66.7 nM. The binding result in assay [7] is reported as “no binding (tested: about 5x10^5 ng/ml)”.

B5: 4.6e10 (antibody, V domains shown)
VH: QVQLVESGGGVVQPGRSLRLSCTASGFTFTYYGLHWVRQAPGKGLEWVAVIWYDGSNQYYADSVQGRFTISRDNSKNTLYLQMNSLRAEDTAVYYCAREGLGAVAGYYFDYWGQGTLVTVSA
VL: DIQMTQSPSSLSASVRDRVTITCRASQIISNYLNWYQQKPGKAPKLLIYAASSLQSGVPSRFSGSGSGTDFTLTISSLQPEDFATYFCQQSYSTPFAFGPGTKVDIKR
As for B5, in [2], the Kd was roughly 0.36 nM. The binding result in the assay with MERS-S1^A domain is “no binding (tested: about 5x10^5 ng/ml)”. Also, the “IC50, neutralisation” value in assay [3] came out at 0.048 µg/mL. Further, in assay [4], the “IC50, MERS-S pseudovirus infection (human IgG1)” value turned out to be 0.32 nM; the “IC50, neutralization … (H2L2)” value is roughly 0.0313 µg/mL; the “IC50, neutralization … (human IgG1)” value is roughly 0.07 µg/mL.

B6: 1E10 heavy chain-only antibody (antibody, V domains shown)
VH: EVQLLESGGGWVQPGGSLRLSCAASGFTFSTNAMSWVRQAPGKGLEWVSGISGSGGSTDYADSVKGRFTISRDNSKNTLYLQMNSLRAEDTAVYYCAPRIAVAPDALDIWGQGTMVTVSS
Molecule B6 came in with a Kd in [1] of 1 nM. This counts as single-digit nanomolar.

B7: 1.2g5 (antibody, V domains shown)
VH: QVQLVQSGAEVKKPGSSVKVSCKASGGTFSTYAISWVRQAPGQGLEWMGGIIPIFGTANYAQKFQGRVTIIADKSTNTAYMDLSSLRSEDTAVYYCAREGNLGYDVVTGYSYFVYWGQGTLVTVSS
VL: EIVLTQSPGTLSLSPGERATLSCRASQSVSSSYLAWYQQKPDQVPRLLIYGTSSRATGIPDRFSGSGSGTDFTLTISRLEPEDFAVYYCQQYGRSLTFGGGTKVEIKR
B7 displayed a Kd in [5] of roughly 0.081 nM. Also, the binding result with MERS-S1^A domain is listed as “no binding (tested: about 5x10^5 ng/ml)”. In addition, the “IC50, neutralisation” value in assay [3] was 0.002 µg/ml and 0.013 nM. Besides, in assay [4], the “IC50, neutralization … (H2L2)” value is roughly 0.00062 µg/mL and the “IC50, neutralization … (human IgG1)” value is roughly 0.007 µg/mL.

B8: 2.6h11 (antibody, V domains shown)
VH: EVQLVESGGGLVQPGRSLRLSCTASGFTFGDYVMSWFRQAPGKGLEWVGFIRSKAHGGTTEYAASVNGRFSISRDDSKTIAYLQMNSLKSEDTAVYYCTWLRNDYYYGMDVWGLGTTVTVSS
VL: DIMMTQSPLSLPVTPGEPASISCRSSQRLLHSNGYSYVDWYLQKPGQSPQLLIYLGSDRASGVPDRFSGSGSGTDFTLKISRVEAEDVGVYYCMQTLQTPWTFGQGTKVEIKR
Take B8: the results for the binding result with peptide 11, with peptide 10 and with SARS-CoV spike protein were “no binding”, “no binding” and “no binding (tested: 25.00 (no unit printed))”, respectively.

B9: 1G3 heavy chain-only antibody (antibody, V domains shown)
VH: EVQLVESGGGVVQPGRSLRLSCAASGFTFSSYGMHWVRQAPGKGLEWVAVIWYDGSNKYYADSVKGRFTISRDNSKNTLYLQMNSLRAEDTAVYYCARDERIFGVPDAFDIRGQGTMVTVSS
In turn, B9 registered a Kd in [1] of 21.7 nM.

B10: 1.17f10 (antibody, V domains shown)
VH: QVQLVESGGGVVQPGRSLRLSCAASGFTFSKYGMHWVRQAPGKGLEWVANIGYDGSDKYYADSVKGRFTISRDNSKNMLYLQMNSLRAEDTAVYFCARGGWIDDYYYGLDVWGQGTTVTVSS
VL: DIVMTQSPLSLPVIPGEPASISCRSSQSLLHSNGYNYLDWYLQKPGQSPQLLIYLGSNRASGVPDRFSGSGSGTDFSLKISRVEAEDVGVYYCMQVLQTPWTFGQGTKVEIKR
As for B10, the binding result with SARS-CoV spike protein is recorded as “no binding (tested: 25.00 (no unit printed))”.

B11: 1.12g2 (antibody, V domains shown)
VH: QVQLVESGGGVVQPGRSLRLSCAASGFTFSSYGMHWVRQAPGKGLEWVAVICYDGSDKYYTDSVRGRFTISRDNSKNTLYLQMNSLRVEDTAMYFCARGGWIDDYYYGMDVWGQGTTVTVSS
VL: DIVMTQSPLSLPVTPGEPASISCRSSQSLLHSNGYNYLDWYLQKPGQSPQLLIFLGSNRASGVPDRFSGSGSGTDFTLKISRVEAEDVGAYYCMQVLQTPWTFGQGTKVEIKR
As to B11, in the assay with SARS-CoV spike protein, the binding result is “no binding (tested: 25.00 (no unit printed))”.

B12: 1.5d6 (antibody, V domains shown)
VH: QVQLVESGGGVVQPGRSLRLSCAASGFTFSRYGMHWVRQAPGKGLEWVAVIGYDGSNKYYADSVKGRFTISRDNSKNTLSLQMNSLRAEDTAVYYCARGGWNDDYYYGLDVWGQGTTVTVSS
VL: DIVMTQSPLSLPVIPGEPASISCRSSQSLLHSNGYNYLDWYLQKPGQSPQLLIYLGSNRASGVPDRFSGSGSGTDFTLKISIVEAEDAGVYYCMQVLQTPWTFGQGTKVEIKR
Take B12: in the assay with SARS-CoV spike protein, the binding result is recorded as “no binding (tested: 25.00 (no unit printed))”.

B13: 7.7g6 (antibody, V domains shown)
VH: QVQLVQTGAEVKKPGSSVKVSCKASGGTFSIYAISWVRQAPRQGLEWMGGIIPIFGTANYAQKFQGRVTITADKSTNTAYMELSRLRSEDTAVYYCAREGDDVLVPTSRGFFDYWGQGTLVTVSS
VL: not shown
In assay [5], B13 yielded a Kd of roughly 0.36 nM. In the assay with MERS-S1^A domain, the binding result is given as “no binding (tested: about 5x10^5 ng/ml)”. Further, the “IC50, neutralisation” value in [3] was 0.001 µg/ml and 0.007 nM. Moreover, the “EC50 (read off the curve)” value in assay [6] and in assay [7] was roughly 0.02 µg/mL in each case. Also, the “IC50, neutralization … (H2L2)” value in [4] was roughly 0.00011 µg/mL. Moreover, the “IC50, neutralization … (human IgG1)” value in [4] was roughly 0.02 µg/mL.

B14: 3.5g6 (antibody, V domains shown)
VH: QVQLQQSGPGLVKPSQTLSLTCAISGHSVSSNSADWNWIRQSPSRGLEWLGRTYCRSKCYNDYAVSVKSRITINPDTSKNQFSLQLNPVTPEDTAVYYCARSLGSGTYPFDSWGQGTLVTVSS
VL: DIQMTQSPSSLSASVGDRVTITCRASQRISRFLNWYQQTPGKAPKFLIYAASSLQSGVPSRFSGSGSGTDFTLTISSLQPEDFATYYCQQSYSTPLTFGGGTTVEIKR
Regarding B14, the binding result in the assay with MERS-S1^A domain is recorded as “no binding (tested: about 5x10^5 ng/ml)”; in assay [6] it was “no binding (tested: about 5x10^5 ng/ml)”; with SARS-CoV spike protein, “no binding (tested: 25.00 (no unit printed))”; in [7] it was “no binding (tested: about 5x10^5 ng/ml)”. In addition, the “IC50, neutralisation” value in assay [3] was 2.49 µg/mL. In addition, the “EC50 (read off the curve)” value in [8] was roughly 0.2 µg/mL. In assay [4], the “IC50, MERS-S pseudovirus (human IgG1)” value was determined as 16.6 nM.
